From patent US20110150888A1 (Amgen, published 2011)
Numbering of substitutions follows the chain as printed. Names may count otherwise. One block for each binder: values may come before it.

Legend:
[1] = molecular target: T1, human hepcidin (mature, 25 amino acids) (human, mono-biotinylated in the ELISAs and on the KinExA beads (site not stated); unlabelled in solution and on the BIAcore chip); experiment: antibody at 1:250 dilution; KinExA / BIAcore named in the paragraph
T1 construct: the form is named in each assay field; also called rhuHepc; rhHepc
T1 peptide: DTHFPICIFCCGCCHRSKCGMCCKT

[2] = molecular target: T1, human hepcidin (mature, 25 amino acids); experiment: KinExA solution equilibrium, human hepcidin-coated beads
Description: SA-Sepharose beads were pre-coated with biotinylated human hepcidin (SEQ ID NO: 9) and blocked with BSA according to manufacturer's instructions. Antibodies and hepcidin were diluted in PBS/0.1% BSA/0.05% NaN₃ buffer. Fixed concentrations of antibodies 15E1, 15E1 W52H, 15E1 A99H, 15E1 N521-1, 15E1 A107H and 18B11 were incubated with various concentrations of human hepcidin at room temperature for 8 hours before being run through the human hepcidin-coated beads. The amount of the bead-bound antibody was quantified by fluorescently (Cy5)-labeled goat anti-murine-IgG (H+L) antibody (Jackson Immuno Research, West Grove, Pa.). The binding signal is proportional to the concentration of free antibody at equilibrium. Dissociation equilibrium constant (KD) was obtained from nonlinear regression of the competition curves using a dual-curve one-site homogeneous binding model (KinExATM Pro software).

[3] = molecular target: T1, human hepcidin (mature, 25 amino acids); experiment: ELISA, mono-biotinylated human hepcidin on Neutravidin plate, pH 7.4
Description: (§1) Differential pH binding of the antibodies listed above in Table 3 was then determined by ELISA. 50 μL of Neutravidin (Pierce) at 8 μg/mL in 1×PBS was coated upon a Nunc Maxisorp 384-well plate, and incubated at 37° C. for 1 hr. After blocking the wells with 0.1% BSA/PBS/0.05% Tween20 for 1 hour at room temperature, plates were washed six times with PBS/0.05% Tween20. 25 μL of mono-biotinylated hepcidin at 50 ng/mL in 0.1% BSA/PBS/0.05% Tween20 was added to the 384-well plate, and incubated at room temperature for 1 hour. The plates were next washed six times with PBS/0.05% Tween20. Starting hepcidin antibody concentrations were normalized to 1 μg/mL for pH 5.5 and 6.0 conditions and to 100 ng/mL for pH 7.4 conditions. The hepcidin antibodies were serially diluted 3-fold in PBS/1% NFDM pH 7.4 and 4-fold in PBS/1% NFDM pH 6.0 and 5.5. The dilutions and titrations were performed in polypropylene 96-well dilution plates, and then were transferred in duplicate to a Neutravidin-coated 384-well plate. The biotinylated hepcidin and antibodies were incubated for 2 hours at room temperature. The plate was next washed six times with PBS/0.05% Tween20. 25 μL it of goat anti-huIgG-horseradish peroxidase at a 1:7000 dilution in 0.1% BSA/PBS/0.05% Tween20 was next added to each well of the assay plate. The plate was finally washed six times in PBS/0.05% Tween20. Enhanced K-Blue 3,3′,5,5′-Tetramethylbenzidine (TMB) Substrate (Neogen) was added and the reaction stopped using 1 M H₃PO₄ after 10 minutes of incubation at room temperature. The absorption was measured at 450 nm on a plate reader. Binding data were analyzed by non-linear regression analysis (sigmoidal dose-response, variable slope) to generate EC₅₀ values using GraphPad Prism® software. […] Double combinations of these mutants were made.

[4] = molecular target: T1, human hepcidin (mature, 25 amino acids); experiment: ELISA, mono-biotinylated human hepcidin on Neutravidin plate, pH 6.0
Description: as §1

[5] = molecular target: T1, human hepcidin (mature, 25 amino acids); experiment: ELISA, mono-biotinylated human hepcidin on Neutravidin plate, pH 5.5
Description: as §1

[6] = molecular target: T1, human hepcidin (mature, 25 amino acids); experiment: ELISA, mono-biotinylated human hepcidin on Neutravidin plate, pH 6.0 against pH 7.4
Description: as §1

fold reduction in affinity at pH 6 compared to pH 7.4 [1]: ~10 fold
B1: antibody 24E4 (antibody, V domains shown)
VH: QVQLVQSGAEVKEPGASVKVSCKASGYTFTSYGVSWVRQAPGQGLEWMGWISAYNGNTLYAQHLLGRVTMTTDTSTSTAYMELRSLRSDDTAVYYCAREDLGMGDYWGQGTLVTVSS
VL: QSVLTQPPSVSGAPGQRVTISCTGSSSNIGAGYGVYWYQQLPGTAPKLLIYGHNNRPSGVPDRFSGSKSDTSASLAITGLQAEDEADYYCQSYDSNLIGSVFGTGTKVTVL
notes: Human antibody from Xenomouse IgG2 or IgG4 mice

fold reduction in affinity at pH 6 compared to pH 7.4 [1]: ~10 fold
B2: antibody 19B8 (antibody, V domains shown)
VH: QVHLQQWGAGPLKPSETLSLTCAVYNGSFSGYYWSWIRQPPGKGLDWIGDINHSGNTKYNPSLKSRVTISVDTAKNQFSLKLSSVTAADTAVYYCARGDFWSGFDWFDPWGQGTLVTVSS
VL: QSALTQPASVSGSPGQSITISCTGTSSNVGTYKLVSWYQQHPGKAPKLMISEVSKRPSGLSNRFSGSKSGNTASLTISGLQAEDEADYYCSSYAGDSTLVFGGGTKLTVL
notes: as for B1

fold reduction in affinity at pH 6 compared to pH 7.4 [1]: ~10 fold
B3: antibody 22F12 (antibody, V domains shown)
VH: B2 VH with H3Q, N26G, D46E, A74S, Q77H
VL: B2 VL with T31S, K33N, Q40K, S91C, D96S
notes: as for B1

fold reduction in affinity at pH 6 compared to pH 7.4 [1]: ~10 fold
B4: antibody 20E12 (antibody, V domains shown)
VH: B2 VH with H3Q, N26G, D46E, A74S, S83N
VL: B2 VL with T31S, K33N, I50L, N62S, N71D, S91C, D96S
notes: as for B1

fold reduction in affinity at pH 6 compared to pH 7.4 [1]: ~10 fold
B5: antibody 23A11 (antibody, V domains shown)
VH: B2 VH with D46E, S83N
VL: B2 VL with V100I, F101V
notes: as for B1

fold reduction in affinity at pH 6 compared to pH 7.4 [1]: ~10 fold
B6: antibody 22H10 (antibody, V domains shown)
VH: B2 VH with D46E
VL: B2 VL with G43D, M49I, A86V
notes: as for B1

Kd [2]: 37 pM
EC50 [3]: 2.3 ng/mL
EC50 [4]: 2.3 ng/mL
EC50 [5]: 2.3 ng/mL
B7: antibody 15E1 (wild type) (antibody, V domains shown)
VH: QVQLVESGGGVVQPGRSLRLSCAASGFTFSSYGMHWVRQAPGKGLEWVAVIWYAESNKYYADSVKGRFTISRDNSKNTLYLQMNSLRAEDTAVYYCARAQEGIAPDAFDIWGQGTMVTVSS
VL: SYELTQPPSVSVSPGQTATITCSGDKLGERYACWYQQRPGQSPVLVIYQDSKRPSGIPERFSGSNSGNTATLTISGTQAMDEADYFCQAWYSSTNVLFGGGTKLTVL
notes: Human antibody

Kd [2]: > 10000 pM
EC50 [3]: 4.1 ng/mL
EC50 [4]: 10.7 ng/mL
fold increase in EC50 as the pH was lowered to 6.0 [6]: ≥ 1.5 fold
EC50 [5]: 29.1 ng/mL
B8: 15E1 A99H (antibody, V domains shown)
VH: B7 VH with A99H
VL: B7 VL
notes: Histidine mutant of 15E1, transiently expressed in 293-6E cells; constant regions as in wild-type 15E1; also called A99H (heavy chain)

EC50 [3]: 4.5 ng/mL
EC50 [4]: 5.8 ng/mL
fold increase in EC50 as the pH was lowered to 6.0 [6]: ≥ 1.5 fold
EC50 [5]: 17 ng/mL
B9: 15E1 W52H (antibody, V domains shown)
VH: B7 VH with W52H
VL: B7 VL
notes: Histidine mutant of 15E1, transiently expressed in 293-6E cells; constant regions as in wild-type 15E1; also called W52H (heavy chain)
